Data published in publication PMC3673938, “Two Distinct Calmodulin Binding Sites in the Third Intracellular Loop and Carboxyl Tail of Angiotensin II (AT1A) Receptor” (PLoS ONE, 2013).

B1: ATi3(214–231) peptide (peptide)
peptide: SYTLIWKALKKAYEIQKN
notes: also called 1–12 motif peptide of the i3 loop; source: synthetic peptide (MUSC Proteogenomics Facility, HPLC purified)
B2: ATct(302–317) peptide (peptide)
peptide: YGFLGKKFKKYFLQLL
notes: also called 1-5-10 motif peptide of the carboxyl tail; source: synthetic peptide (MUSC Proteogenomics Facility, HPLC purified)
B3: ATct(302–317)F309A peptide (peptide)
peptide: YGFLGKKAKKYFLQLL
notes: AT1A receptor carboxyl tail, amino acids 302–317, with F309A; source: synthetic peptide (MUSC Proteogenomics Facility, HPLC purified)
B4: ATct(302–317)F313A peptide (peptide)
peptide: YGFLGKKFKKYALQLL
notes: AT1A receptor carboxyl tail, amino acids 302–317, with F313A; source: synthetic peptide (MUSC Proteogenomics Facility, HPLC purified)
B5: GST-ATi3(213–242) (domain or fragment)
chain: TSYTLIWKALKKAYEIQKNKPRNDDIFRII
notes: amplified from pcDNA3.1-AT1A receptor; cloned in pGEX-4T-1 at BamH I and EcoR I downstream of GST; also called GST-i3 loop; i3 loop of the AT1A receptor; source: E. coli BL21, purified (glutathione sepharose 4B); not shown: GST, N-terminal, kept
B6: GST-ATi3N(213–234) (domain or fragment)
chain: TSYTLIWKALKKAYEIQKNKPR
notes: also called GST-N-terminus of the i3 loop; source: E. coli BL21, purified (glutathione sepharose 4B); not shown: GST, N-terminal, kept
B7: GST-ATctN(297–324) (domain or fragment)
chain: LNPLFYGFLGKKFKKYFLQLLKYIPPKA
notes: N-terminal part of the carboxyl tail of the AT1A receptor, amino acids 297–324; stop codon after 324A in GST-ATct(297–359); also called GST-N-terminus of carboxyl tail; source: E. coli BL21, purified (glutathione sepharose 4B); not shown: GST, N-terminal, kept

Key:
Conditions in all cases: both partners purified
[1] = biological target: T1, dansyl-calmodulin (bovine brain) (bovine, UniProt P62157 1-149, dansyl (0.18–0.34 mol of dansyl moiety per mol of CaM), site not stated); assay: dansyl-CaM fluorescence emission spectrum; 106 nM dansyl-CaM, 500 nM peptide, 0.1 mM calcium, 1 hour at room temperature; excitation 340 nm, emission 425–600 nm; compared with dansyl-CaM in 10 mM EGTA
T1 construct: calmodulin, bovine brain, dansylated; also called dansyl-CaM; source: CaM purified from bovine brain (bought: Calbiochem), labelled with dansyl chloride

[2] = biological target: T1, dansyl-calmodulin (bovine brain); assay: other fluorescence titration; peptides (25–2000 nM) with 147 nM dansyl-CaM, 0.1 mM calcium, 1 hour at room temperature; emission at 485 nm; apparent dissociation constants
[3] = biological target: T2, calmodulin purified from bovine brain (bovine, UniProt P62157 1-149); assay: pull-down; 50 pmol GST-fusion protein with purified bovine brain CaM (50 pmol) in 250 µl of 100 mM Tris-HCl pH 7.5 with 0.1 mM CaCl2; 4°C; glutathione-sepharose 4B beads; immunoblot with anti-CaM; for the mutants density of CaM against loaded GST-fusion protein
T2 construct: calmodulin, bovine brain; also called CaM; pure bovine brain CaM; source: purified from bovine brain; bought: Calbiochem

| Binder | Kd [2] [nM] | binding result [3] | also measured |
| --- | --- | --- | --- |
| B1 | 177 |  | fold increase in dansyl-CaM fluorescence intensity at 486 nm (500 nM peptide) [1]: ~3.2 fold |
| B2 | 79.4 |  | fold increase in dansyl-CaM fluorescence intensity at 482 nm (500 nM peptide) [1]: ~3.5 fold |
| B3 | 308 |  |  |
| B4 | 388 |  |  |
| B5 |  | binds |  |
| B6 |  | binds |  |
| B7 |  | binds |  |
